According to article doi:10.1101/2020.10.21.349639 (bioRxiv, 2020):

Target: T1, NorC (wild type) (Staphylococcus aureus subsp. aureus COL …)
T1 chain: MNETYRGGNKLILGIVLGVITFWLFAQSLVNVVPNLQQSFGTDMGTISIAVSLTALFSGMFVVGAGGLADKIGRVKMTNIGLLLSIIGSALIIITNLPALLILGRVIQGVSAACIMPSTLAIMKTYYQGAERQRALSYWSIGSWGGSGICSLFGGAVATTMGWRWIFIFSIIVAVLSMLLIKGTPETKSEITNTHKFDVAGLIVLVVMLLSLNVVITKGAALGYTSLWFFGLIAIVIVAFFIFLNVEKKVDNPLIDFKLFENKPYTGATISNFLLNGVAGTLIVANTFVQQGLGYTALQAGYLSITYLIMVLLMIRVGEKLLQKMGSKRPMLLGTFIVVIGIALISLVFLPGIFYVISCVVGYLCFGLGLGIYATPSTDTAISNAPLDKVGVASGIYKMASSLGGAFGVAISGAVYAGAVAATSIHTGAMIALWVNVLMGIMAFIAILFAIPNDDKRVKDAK
Assay: ITC

Kd: 38 ± 5 nM
B1: single-domain Indian camelid antibody (ICab), Zn2+-bound (VHH)
VHH: QVQLEESGGGSVQAGGSLRLSCAASGYMYSTYSTYCMGWFRQAPGKEREGVAFIKRGDHSTYYTDSVKGRFTISQDSAKNTVSLQMNNLKPEDTAIYYCAADFAHSFLLSVHSGAGQYSYWGQGTQVTVSS
